Molecular target: the molecule itself
Assay: HPLC sedimentation assay of aggregation

| Protein | binding result |
| --- | --- |
| KKQQQQQQQQQQQQQQQQQQQQQQQQQQQQQQQQQQQKK [Q35] | binds |
| KKQQQQQQQQQQQQQQQQQQQQQQQQQQQQQQQQQQQPPPPPPPPPPKK [Q35P10] | binds |
